Reference: PMC12699829, “Development of a glutamine-responsive MRI contrast agent” (Chemical Science, 2025)

Columns and labels:
[1] = T1 and T2 relaxivity measurements at 9.4 T (400 MHz NMR); assay type: physicochemical; details: for r1 (Holo) / r2 (Holo) / r1 (Apo) / r2 (Apo): PBS buffer pH 7.4, 37 °C; for r1 (Holo) / r2 (Holo): with Gln; for r1 (Apo) / r2 (Apo): without Gln
Protocol: The effectiveness of a contrast agent depends on its “relaxivity”, which is measured in units of mM^−1 s^−1, and quantifies how much a given concentration of the contrast agent improves water relaxation rates. T1 and T2 relaxivities are denoted r1 and r2, respectively, and are calculated according to eqn (1):1 [drawing 1] Here, Ti and Ti^0 are the relaxation times in the presence and absence of the contrast agent, respectively, and [C] is the concentration of the contrast agent. […] The relaxivity of a contrast agent depends not only on the properties of the molecule but also on the strength of the magnetic field used for the measurement. Whereas early MRI instruments were relatively weak (<1 T), the modern clinical standard has risen to 1–3 T, wth an increasing number of even more powerful instruments (>3 T) in recent years. Thus, we performed relaxivity experiments at both the most clinically relevant field strengths 1.4 T and at the more cutting-edge field strength of 9.4 T.
10% D 2O (assay buffer). S tock solutions of swArM in assay buffer was prepared at1.11, 0.83, 0.56, and 0.28 mM. Apo- and holo-swArM samples were prepared from the same stock by adding either 20 μL assay buffer or 20 μL 0. 1 M Gln in assay buffer, to 180 μL of protein solution, respectively. Final protein concentrations were verified using the molar extinction coefficient ε28 0 = 25.9 mM -1 cm -1.
B. NM R M easu r ements . Relaxivities of all variants were determined at 37 °C from spectra taken at 9.4 T (400 mHz) using a Varian Inova 400 -MHz NMR spectrometer equipped with a Nalorac, 5 mm, DR probe. Select variants were also investigated at 32°C at 1.4 T (60 mHz) using a Nanalysis NMReady60 Pro instrument. Measurements were typically performed on 4 diffe rent concentrations of contrast agent and on the same buffer with no contrast agent. Temperature- dependent relaxivity measurements were performed using a Varian Inova 500-MHz NMR spectrometer, equipped with a Vari an, 5-mm, TR PFG probe with inverse proton detection. Temperature- dependent relaxivity was determined using either two concen trations of contrast agent ( 0. 5 and 1. 0 mM ) or t hree (0. 3, 0. 6, and 0.9 mM) . The temperature was calibrated using the 1H NMR signal of ethylene glycol.20 T1 measurements were performed using the inversion recovery method21 and T2 measurements were performed using the Carr–Purcell–Meiboom –G ill (CPMG) p ulse […]
Six or more pulse delay times (τ) were chosen to ensure coverage of the Ti under observation, and the delay between pulse sequences was set to at least 5-times T1.
Optimized 90° and 180° pulse widths were determined on the day of the experiment, and typically spanned 16‒2 0 μs (90° pulse width) and 32‒4 0 μs (180° pulse width). The delay in the CPMG pulse sequence was set to at least 50 times the 180° pulse width to allow at least four echo loops .
C. A n al ysi s . To determine Ti, data were analyzed via MestReNova software. For each spectrum, an integration was performed over the water peak, and the values obtained (dependent variable) were plotted against τ (independent variable). […]
then fit to a monoexponential decay according to Eq. 1. From these analyses, we obtain Ti for each sample concentration and type.
The quantity described by Eq. 2, where Ti at zero added sample is T0, was then plotted against the swArM concentration and a linear regression model was applied. The slope of this line gives the contrast agent relaxivity ri.

[2] = T1 and T2 relaxivity measurements at 1.4 T (60 MHz NMR); assay type: physicochemical
[3] = free contrast agent control, PBS pH 7.4, 37 °C
[4] = PBS buffer pH 7.4, 32 °C, with Gln
[5] = PBS buffer pH 7.4, 32 °C, without Gln

## O=C([O-])CN1CCN(CC(=O)[O-])CCN(CC(=O)[O-])CCN(CC(=O)[O-])CC1.[Gd+3] [Gd(DOTA), reference compound]
[1]; free contrast agent control
  +Gln/−Gln % r1 Change: 0 ± 3%
  +Gln/−Gln % r2 Change: 1 ± 6%
[1]; [3]
  r1 (+Gln): 2.80 ± 0.07 mM⁻¹ s⁻¹
  r1 (−Gln): 2.82 ± 0.04 mM⁻¹ s⁻¹
  r2 (+Gln): 3.6 ± 0.2 mM⁻¹ s⁻¹
  r2 (−Gln): 3.5 ± 0.1 mM⁻¹ s⁻¹

B1: [Gd(DOTA-mal^N)]72: swArM: Gd(DOTA-mal^N) metallocofactor covalently attached at Cys72 of T72C E. coli glutamine-binding protein (GlnBP) (conjugate, UniProt P0AEQ3 23-248, looked up, variant T72C)
Glutamine-binding periplasmic …: ADKKLVVATDTAFVPFEFKQGDKYVGFDVDLWAAIAKELKLDYELKPMDFSGIIPALQTKNVDLALAGITICDERKKAIDFSDGYYKSGLLVMVKANNNDVKSVKDLDGKVVAVKSGTGSVDYAKANIKTKDLRQFPNIDNAYMELGTNRADAVLHDTPNILYFIKTAGNGQFKAVGDSLEAQQYGIAFPKGSDELRDKVNGALKTLRENGTYNEIYKKWFGTEPK
modifications: Gd(DOTA-malN) at Cys72
[2]; 32 °C
  Holo/Apo % r1 Change: 4 ± 2%
  Holo/Apo % r2 Change: 11 ± 2%
[2]; [4]
  r1 (Holo): 20.4 ± 0.3 mM⁻¹ s⁻¹
  r2 (Holo): 41.5 ± 0.4 mM⁻¹ s⁻¹
[2]; PBS buffer pH 7.4, 32 °C, with Gln, listed as [Gd(DOTA-malN)]72
  r1 (Holo): 20.4 mM⁻¹ s⁻¹
[2]; [5]
  r1 (Apo): 19.5 ± 0.4 mM⁻¹ s⁻¹
  r2 (Apo): 37.2 ± 0.7 mM⁻¹ s⁻¹
[2]; PBS buffer pH 7.4, 32 °C, without Gln, listed as [Gd(DOTA-malN)]72
  r1 (Apo): 19.5 mM⁻¹ s⁻¹
[1]; 37 °C
  Holo/Apo % r1 Change: –1 ± 2%
  Holo/Apo % r2 Change: 20 ± 5%
[1]
  r1 (Holo): 4.32 ± 0.07 mM⁻¹ s⁻¹
  r2 (Holo): 43.2 ± 0.8 mM⁻¹ s⁻¹
  r1 (Apo): 4.35 ± 0.07 mM⁻¹ s⁻¹
  r2 (Apo): 36 ± 1 mM⁻¹ s⁻¹
[1]; listed as [Gd(DOTA-malN)]72
  r1 (Holo): 4.32 mM⁻¹ s⁻¹
  r1 (Apo): 4.35 mM⁻¹ s⁻¹

B2: [Dy(DOTA-mal^N)]72-A126Y: swArM: Dy(DOTA-mal^N) on T72C/A126Y double variant of GlnBP (conjugate, UniProt P0AEQ3 23-248, looked up, variant T72C A126Y)
Glutamine-binding periplasmic …: ADKKLVVATDTAFVPFEFKQGDKYVGFDVDLWAAIAKELKLDYELKPMDFSGIIPALQTKNVDLALAGITICDERKKAIDFSDGYYKSGLLVMVKANNNDVKSVKDLDGKVVAVKSGTGSVDYAKYNIKTKDLRQFPNIDNAYMELGTNRADAVLHDTPNILYFIKTAGNGQFKAVGDSLEAQQYGIAFPKGSDELRDKVNGALKTLRENGTYNEIYKKWFGTEPK
modifications: Dy(DOTA-malN) at Cys72
notes: swArM: Dy(DOTA-mal^N) on T72C/A126Y double variant of GlnBP
[1]; 37 °C
  Holo/Apo % r2 Change: 58 ± 6%
[1]
  r2 (Holo): 10.8 ± 0.2 mM⁻¹ s⁻¹
  r2 (Apo): 6.8 ± 0.2 mM⁻¹ s⁻¹

B3: [Dy(DOTA-malN)]72-G119K: swArM: Dy(DOTA-mal^N) on T72C/G119K double variant of GlnBP (conjugate, UniProt P0AEQ3 23-248, looked up, variant T72C G119K)
Glutamine-binding periplasmic …: ADKKLVVATDTAFVPFEFKQGDKYVGFDVDLWAAIAKELKLDYELKPMDFSGIIPALQTKNVDLALAGITICDERKKAIDFSDGYYKSGLLVMVKANNNDVKSVKDLDGKVVAVKSGTKSVDYAKANIKTKDLRQFPNIDNAYMELGTNRADAVLHDTPNILYFIKTAGNGQFKAVGDSLEAQQYGIAFPKGSDELRDKVNGALKTLRENGTYNEIYKKWFGTEPK
modifications: Dy(DOTA-malN) at Cys72
notes: swArM: Dy(DOTA-mal^N) on T72C/G119K double variant of GlnBP
[1]; 37 °C
  Holo/Apo % r2 Change: 15 ± 4%
[1]
  r2 (Holo): 8.5 ± 0.2 mM⁻¹ s⁻¹
  r2 (Apo): 7.39 ± 0.07 mM⁻¹ s⁻¹

B4: [Dy(DOTA-malN)]72-A126D: swArM: Dy(DOTA-mal^N) on T72C/A126D double variant of GlnBP (conjugate, UniProt P0AEQ3 23-248, looked up, variant T72C A126D)
Glutamine-binding periplasmic …: ADKKLVVATDTAFVPFEFKQGDKYVGFDVDLWAAIAKELKLDYELKPMDFSGIIPALQTKNVDLALAGITICDERKKAIDFSDGYYKSGLLVMVKANNNDVKSVKDLDGKVVAVKSGTGSVDYAKDNIKTKDLRQFPNIDNAYMELGTNRADAVLHDTPNILYFIKTAGNGQFKAVGDSLEAQQYGIAFPKGSDELRDKVNGALKTLRENGTYNEIYKKWFGTEPK
modifications: Dy(DOTA-malN) at Cys72
notes: swArM: Dy(DOTA-mal^N) on T72C/A126D double variant of GlnBP
[1]; 37 °C
  Holo/Apo % r2 Change: 23 ± 5%
[1]
  r2 (Holo): 11.7 ± 0.09 mM⁻¹ s⁻¹
  r2 (Apo): 9.5 ± 0.3 mM⁻¹ s⁻¹

B5: [Dy(DOTA-malC)]72-A126Y: swArM: Dy(DOTA-mal^C), linker on carbon of carboxylate arm, on T72C/A126Y GlnBP (conjugate, UniProt P0AEQ3 23-248, looked up, variant T72C A126Y)
Glutamine-binding periplasmic …: ADKKLVVATDTAFVPFEFKQGDKYVGFDVDLWAAIAKELKLDYELKPMDFSGIIPALQTKNVDLALAGITICDERKKAIDFSDGYYKSGLLVMVKANNNDVKSVKDLDGKVVAVKSGTGSVDYAKYNIKTKDLRQFPNIDNAYMELGTNRADAVLHDTPNILYFIKTAGNGQFKAVGDSLEAQQYGIAFPKGSDELRDKVNGALKTLRENGTYNEIYKKWFGTEPK
modifications: Dy(DOTA-malC) at Cys72
notes: swArM: Dy(DOTA-mal^C), linker on carbon of carboxylate arm, on T72C/A126Y GlnBP
[1]
  r2 (Holo): 9.6 ± 0.2 mM⁻¹ s⁻¹
  r2 (Apo): 9.7 ± 0.1 mM⁻¹ s⁻¹

B6: [Gd(DOTA-malN)]72-Q183K: swArM: Gd(DOTA-mal^N) on T72C/Q183K double variant of GlnBP (conjugate, UniProt P0AEQ3 23-248, looked up, variant T72C Q183K)
Glutamine-binding periplasmic …: ADKKLVVATDTAFVPFEFKQGDKYVGFDVDLWAAIAKELKLDYELKPMDFSGIIPALQTKNVDLALAGITICDERKKAIDFSDGYYKSGLLVMVKANNNDVKSVKDLDGKVVAVKSGTGSVDYAKANIKTKDLRQFPNIDNAYMELGTNRADAVLHDTPNILYFIKTAGNGQFKAVGDSLEAKQYGIAFPKGSDELRDKVNGALKTLRENGTYNEIYKKWFGTEPK
modifications: Gd(DOTA-malN) at Cys72
notes: swArM: Gd(DOTA-mal^N) on T72C/Q183K double variant of GlnBP
[1]
  r2 (Holo): 28.2 ± 0.8 mM⁻¹ s⁻¹
  r2 (Apo): 30.9 ± 0.2 mM⁻¹ s⁻¹

B7: [Dy(DOTA-malN)]72-Q183Y: swArM: Dy(DOTA-mal^N) on T72C/Q183Y double variant of GlnBP (conjugate, UniProt P0AEQ3 23-248, looked up, variant T72C Q183Y)
Glutamine-binding periplasmic …: ADKKLVVATDTAFVPFEFKQGDKYVGFDVDLWAAIAKELKLDYELKPMDFSGIIPALQTKNVDLALAGITICDERKKAIDFSDGYYKSGLLVMVKANNNDVKSVKDLDGKVVAVKSGTGSVDYAKANIKTKDLRQFPNIDNAYMELGTNRADAVLHDTPNILYFIKTAGNGQFKAVGDSLEAYQYGIAFPKGSDELRDKVNGALKTLRENGTYNEIYKKWFGTEPK
modifications: Dy(DOTA-malN) at Cys72
notes: swArM: Dy(DOTA-mal^N) on T72C/Q183Y double variant of GlnBP
[1]; 37 °C
  Holo/Apo % r2 Change: 29 ± 4%
[1]
  r2 (Holo): 18.0 ± 0.4 mM⁻¹ s⁻¹
  r2 (Apo): 14.0 ± 0.1 mM⁻¹ s⁻¹

B8: [Dy(DOTA-mal^N)]72-N127Y: swArM: Dy(DOTA-mal^N) on T72C/N127Y double variant of GlnBP (conjugate, UniProt P0AEQ3 23-248, looked up, variant T72C N127Y)
Glutamine-binding periplasmic …: ADKKLVVATDTAFVPFEFKQGDKYVGFDVDLWAAIAKELKLDYELKPMDFSGIIPALQTKNVDLALAGITICDERKKAIDFSDGYYKSGLLVMVKANNNDVKSVKDLDGKVVAVKSGTGSVDYAKAYIKTKDLRQFPNIDNAYMELGTNRADAVLHDTPNILYFIKTAGNGQFKAVGDSLEAQQYGIAFPKGSDELRDKVNGALKTLRENGTYNEIYKKWFGTEPK
modifications: Dy(DOTA-malN) at Cys72
notes: swArM: Dy(DOTA-mal^N) on T72C/N127Y double variant of GlnBP
[1]; 37 °C
  Holo/Apo % r2 Change: 40 ± 7%
[1]
  r2 (Holo): 9.1 ± 0.2 mM⁻¹ s⁻¹
  r2 (Apo): 6.5 ± 0.3 mM⁻¹ s⁻¹
